Legend:
[1] = biological target: T1, hGPVI-hFc fusion protein (human); assay: competition ELISA, hGPVI-Fc on collagen-coated plates (FIG. 1A)
T1 construct: also called GPVI-Fc; human GPVI-Fc fusion protein
Method: (§1) A secondary screening was performed to characterize functional properties of all human GPVI-specific mAbs for their ability to block the binding of collagen to human GPVI-Fc fusion protein in a competition ELISA binding assay. Custom-made collagen coated 96-well plates (Pierce) were used. Pre-incubated mixture of human GPVI-Fc fusion protein and hybridoma supernatants were added to the plate and collagen-human GPVI-Fc complex was detected by using goat anti-human IgG-Fc conjugated with horseradish peroxidase (Sigma; #A0170). The antibody binding was visualized by adding TMB-H2O2 buffer and read at a wavelength of 450 nm. […] The blocking properties of pre-selected mAbs to human GPVI were confirmed to be dose-dependent using a competition ELISA assay as shown in FIG. 1A.

[2] = biological target: T1, hGPVI-hFc fusion protein; assay: DELFIA competition assay: IgG preincubated with GPVI-Fc (3 µg/ml), binding to collagen-coated plate, Test 1
Method: (§2) Collagen coated 384 well plates (Pierce) were blocked with 3% BSA for 2 h. Increasing concentrations of IgG or its corresponding Fab fragment produced by Ficin cleavage (0.3-20 μg/ml) were incubated with recombinant GPVI (Fc-fusion protein of the extracellular GPVI domain; 3 μg/ml) for 30 min. The GPVI-IgG mixture was added to collagen coated plates and incubated for 1 h at RT. Next, 384 well plates were washed (DELFIA wash buffer, Perkin Elmer) five times and Eu-labelled anti-human IgG (100 ng/ml Perkin Elmer) was added. Following 1 h incubation at room temperature plates were washed again five times, enhancement solution (Perkin Elmer) was added and incubated for 10 min. Fluorescence was detected at 360/612 nm using a Tecan Ultra reader.

[3] = biological target: T1, hGPVI-hFc fusion protein; assay: DELFIA competition assay: IgG preincubated with GPVI-Fc (3 µg/ml), binding to collagen-coated plate, Test 2
Method: as §2

[4] = biological target: T2, human GPVI protein, soluble extracellular domain (D1 and D2) (human, UniProt Q9HCN6 21-267); assay: SPR (BIAcore 2000), mAb captured by anti-Fc, human GPVI in solution
T2 construct: extracellular domain; also called hGPVI; human glycoprotein VI
T2 sequence (looked up): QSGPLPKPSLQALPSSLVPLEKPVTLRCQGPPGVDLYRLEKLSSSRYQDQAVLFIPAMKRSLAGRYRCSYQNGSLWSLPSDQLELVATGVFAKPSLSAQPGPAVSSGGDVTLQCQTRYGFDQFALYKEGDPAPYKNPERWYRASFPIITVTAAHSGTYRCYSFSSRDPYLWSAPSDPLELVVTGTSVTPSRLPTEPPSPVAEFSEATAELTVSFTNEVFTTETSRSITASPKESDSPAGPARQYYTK
Method: A last screening was performed by Surface Plasmon Resonance (BIAcore 2000) to evaluate binding properties of GPVI blocking antibodies. In this analysis, we evaluated the interaction of the human GPVI protein with the anti-human GPVI mAbs fixed to anti-Fc antibody covalently linked to CM chips. Binding kinetics of the individual mAbs were performed using the protocol described by Canziani et al 2004. Anal. Biochem. 325: 301-307.

[5] = biological target: T3, primate GPVI-Fc fusion protein (Macaca fascicularis) (Macaca fascicularis (cynomolgus), UniProt Q9HCN6 21-205 (human entry)); assay: competition ELISA against Maccaca GPVI-Fc: inhibition by purified IgG of the binding of GPVI-Fc to collagen; blocked ligand: collagen
T3 construct: also called Maccaca GPVI-Fc; primate GPVI-Fc protein; not shown: Fc part of the primate GPVI-Fc fusion is not described
T3 chain: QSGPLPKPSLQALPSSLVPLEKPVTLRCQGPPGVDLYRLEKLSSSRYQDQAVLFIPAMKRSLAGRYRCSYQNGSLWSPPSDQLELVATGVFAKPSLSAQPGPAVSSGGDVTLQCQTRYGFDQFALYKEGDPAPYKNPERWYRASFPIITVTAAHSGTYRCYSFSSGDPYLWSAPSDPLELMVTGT

[6] = biological target: T1, hGPVI-hFc fusion protein; assay: competition ELISA: purified IgG pre-incubated with hGPVI-Fc, mixture added to collagen-coated plate, bound GPVI-Fc detected with anti-human IgG-Fc-HRP (OD 450 nm); blocked ligand: collagen
Method: as §1

[7] = biological target: T1, hGPVI-hFc fusion protein; assay: DELFIA competition assay: Fab preincubated with GPVI-Fc (3 µg/ml), binding to collagen-coated plate, Test 2
Method: as §2

[8] = biological target: T1, hGPVI-hFc fusion protein; assay: DELFIA competition assay: Fab preincubated with GPVI-Fc (3 µg/ml), binding to collagen-coated plate, Test 1
Method: as §2

[9] = biological target: T2, human GPVI protein, soluble …; assay: SPR (Biacore 3000), Fab immobilised, human GPVI analyte
Method: Surface plasmon resonance technology on a Biacore 3000 (GE Healthcare) was used for detailed kinetic characterization of purified antibody fragments. A direct binding assay was used with the anti-GPVI Fab as the ligand and human GPVI as analyte. Typically, 500 RU of anti-GPVI Fab were immobilized on a research grade CM5 chip by amine reactive coupling, resulting in an Rmax of 200 RU for the bound GPVI molecule. Binding kinetics were measured over a concentration range typically between 0.8 to 208 nM in HBS-EP (10 mM HEPES pH 7.4, 150 mM NaCl, 3 mM EDTA, 0.005% Surfactant P20) at a flow rate of 30 μl/min. Chip surfaces were regenerated with 10 mM glycine pH 2.0. Kinetic parameters were analyzed and calculated in the BIAevaluation program package (version 4.1) using a flow cell without immobilized Fab as reference. A 1:1 binding model with mass transfer was applied for a global fit of the data for curves.

[10] = biological target: T2, human GPVI protein, soluble …; assay: SPR (Biacore 3000), human GPVI immobilised, Fab analyte
Method: Surface plasmon resonance technology on a Biacore 3000 (GE Healthcare) was used for detailed kinetic characterisation of purified antibody fragments. An assay with immobilised human GPVI was used. Typically, 300 RU of GPVI were immobilised on a research grade CM5 chip by amine reactive coupling, resulting in an Rmax of 200 RU for the bound antibody fragment. Binding kinetics were measured over a concentration range between 3.2 to 112 nM in HBS-EP (10 mM HEPES pH 7.4, 150 mM NaCl, 3 mM EDTA, 0.005% Surfactant P20) at a flow rate of 30 μl/min. Chip surfaces were regenerated with 10 mM glycine pH2.0. Kinetic parameters were analysed and calculated in the BIAevaluation program package (version 4.1) using a flow cell without immobilised GPVI as reference. A 1:1 binding model with mass transfer was applied for a global fit of the data for curves corresponding to analyte concentrations from 3-56 nM of Fab fragment.
Note that the Biacore assay used to measure the data in this example is different in terms of immobilized binding partner (GPVI versus the mAb/Fab fragment) and this leads to the different Biacore affinities as reported in Table 5.

B1: anti-GPVI mAb from hybridoma clone 390 (antibody, mouse IgG1, kappa, V domains shown)
VH: QVQLKESGPGLVAPSQSLSITCTVSGFSLTGYGVNWVRQPPGKGLEWLGMIWGDGSTDYNSTLKSRLSISKDNSKSQVFLKMNSLQTDDTARYYCARDLPMDYWGQGTSVTVSS
VL: DIQMTQSPSSLSASLGGKVTITCKASQDINKYIAWYQHKPGKGPSLLIHYTSTLQPGIPSRFSGSGSGRDYSFSISNLEPEDIATYYCLQYANLLTFGGGTKLEIKR
modifications: N-glycosylation site (NST) in the heavy chain variable region is occupied
notes: Mouse IgG1, kappa, purified from hybridoma; also called monoclonal antibody from clone 390; IgG from hybridoma clone 390
IC50 [1]: < 10 µg/mL | IC50 [2]: 5.6 µg/mL | IC50 [3]: 5 µg/mL | Kd [4]: 0.04 nM | koff [4]: 4e-06 s⁻¹ | kon [4]: 108000 M⁻¹ s⁻¹ | IC50 (read off the curve) [5]: ~5 µg/mL | IC50 (read off the curve) [6]: ~3 µg/mL

B2: Fab produced by Ficin cleavage of IgG from hybridoma clone 390 (Fab, V domains shown)
VH: QVQLKESGPGLVAPSQSLSITCTVSGFSLTGYGVNWVRQPPGKGLEWLGMIWGDGSTDYNSTLKSRLSISKDNSKSQVFLKMNSLQTDDTARYYCARDLPMDYWGQGTSVTVSS
VL: DIQMTQSPSSLSASLGGKVTITCKASQDINKYIAWYQHKPGKGPSLLIHYTSTLQPGIPSRFSGSGSGRDYSFSISNLEPEDIATYYCLQYANLLTFGGGTKLEIKR
notes: Proteolytic Fab; also called Fab (Ficin cleavage); proteolytic Fab fragment
IC50 [7]: 1.1 µg/mL | IC50 [8]: 1.3 µg/mL

B3: Fab 390-nG (recombinant non-glycosylated Fab of clone 390) (Fab, V domains shown)
VH: QVQLKESGPGLVAPSQSLSITCTVSGFSLTGYGVNWVRQPPGKGLEWLGMIWGDGSTDYQSTLKSRLSISKDNSKSQVFLKMNSLQTDDTARYYCARDLPMDYWGQGTSVTVSS
VL: DIQMTQSPSSLSASLGGKVTITCKASQDINKYIAWYQHKPGKGPSLLIHYTSTLQPGIPSRFSGSGSGRDYSFSISNLEPEDIATYYCLQYANLLTFGGGTKLEIKR
notes: Chimeric Fab from HEK293: VL fused to human constant kappa (IGKC, Q502W4); also called ANTI-GPVI Fab 390-nG construct
Kd [9]: 0.06 nM | koff [9]: 2.2e-05 s⁻¹ | kon [9]: 348000 M⁻¹ s⁻¹ | Kd [10]: 0.2 nM | koff [10]: 2e-05 s⁻¹ | kon [10]: 102000 M⁻¹ s⁻¹
